Data published in US20260242472A1 (SANYOU BIOPHARMACEUTICALS, published 2026).

Tests used:
H2C-scFv-LH [1] = target: T1, H2C-scFv-LH (human); test: SPR (Biacore T200), antigen amine-coupled to about 75 RU, antibody 4 and 20 nM, 1:1 Langmuir fit
T1 construct: also called control antibody H2C-scFv-LH; parent antibody
Description: Protein coupling: The huCD3E-AA1-27-huFc protein produced in example 1.2 was diluted to 5.8 μg/mL with an NaAc buffer at pH 4.5. The flow rate was set to 10 μL/min. The chip was activated with a mixture of 1-ethyl-(3-dimethylaminopropyl)carbodiimide (EDC) and N-hydroxysuccinimide (NHS) for the default time of 420 s. The antigen protein huCD3E AA1-27-huFc was immobilized to a level of approximately 75 RU using a coupling mode with a preset coupling amount. The activated groups not bound to the test sample were blocked with ethanolamine.
Sample test condition: A PBS buffer (pH 7.4) containing 0.05% Tween-20 was used as a running buffer, and the running buffer was used as a control antibody test sample. A series of antibody concentrations (4 nM, 20 nM) were set. During sample analysis, the flow rate was set to 30 μL/min, the binding time was 180 s, and the dissociation time was 300 s. After dissociation was completed, regeneration was performed with 10 mM Gly-HCl (pH 2.0) for 20 s to completely remove antibody bound to the antigen.
Parameter fitting: The experiment was run in multiple cycles, with the response signal plotted against analysis time on the abscissa and response value on the ordinate. After dual-reference subtraction, the obtained data were fitted by BIAcore T200 analysis software. The fitting model used was a 1:1 Langmuir binding model, so as to determine affinity indicators such as the binding dissociation constant.

79-scFv-LH = target: T2, 79-scFv-LH (human); test: BLI (Gator), biotinylated antigen on SA probe, antibody 0.62-40 nM
T2 construct: scFv-Fc
Description: (§1) Protein biotinylation: The antigen protein huCD3E AA1-27-huFc was diluted to a final concentration of 1 mg/mL, premixed with biotin and reacted at 4° C. for 1 h, and then unreacted free biotin was removed by filtration with an ultrafiltration tube to obtain biotinylated huCD3E AA1-27-huFc (hereinafter referred to as huCD3E-AA1-27-huFc-Biotin).
(§2) In the dark, the sensor was pre-wetted with Q Buffer (SA Probes, ProbeLife). After 10 min, the sample plate (Greiner, 655209) was tested. After the test was correct, the preset procedure was followed. First, antigen binding was performed for 600 s. After the binding was completed and equilibration was continued in Q Buffer for 30 s, the sensor bound to the antigen huCD3E-AA1-27-huFc-Biotin was transferred to different concentrations of antibody dilutions for binding for 120 s, and then transferred to Q Buffer for dissociation for 180 s. Finally, KD, Ka and Kd were obtained by fitting the binding and dissociation data of different concentrations of antigens and antibodies.

H2C-scFv-LH [2] = target: T1, H2C-scFv-LH; test: as above
Description: as §1, §2

63-scFv-LH = target: T3, 63-scFv-LH (human); test: as above
T3 construct: scFv-Fc
Description: as §1, §2

| Kd (H2C-scFv-LH [1]) [nM] | koff (H2C-scFv-LH [1]) [s⁻¹] | kon (H2C-scFv-LH [1]) [M⁻¹ s⁻¹] | Kd (79-scFv-LH) [nM] | koff (79-scFv-LH) [s⁻¹] | kon (79-scFv-LH) [M⁻¹ s⁻¹] | Kd (H2C-scFv-LH [2]) [nM] | koff (H2C-scFv-LH [2]) [s⁻¹] | kon (H2C-scFv-LH [2]) [M⁻¹ s⁻¹] | Kd (63-scFv-LH) [nM] | koff (63-scFv-LH) [s⁻¹] | kon (63-scFv-LH) [M⁻¹ s⁻¹] | Binder |
| --- | --- | --- | --- | --- | --- | --- | --- | --- | --- | --- | --- | --- |
| 0.0596 | 0.000165 | 2.77e+06 | – | – | – | – | – | – | – | – | – | huCD3E-AA1-27-huFc (Fc fusion, Made in HEK293 cells, purified on Protein A/G. No linker between the two parts is mentioned; also called antigen protein) QDGNEEMGGITQTPYKVSISGTTVILTTHTCPPCPAPELLGGPSVFLFPPKPKDTLMISRTPEVTCVVVDVSHEDPQVKFNWYVDGVQVHNAKTKPREQQYNSTYRVVSVLTVLHQNWLDGKEYKCKVSNKALPAPIEKTISKAKGQPREPQVYTLPPSREEMTKNQVSLTCLVKGFYPSDIAVEWESNGQPENNYKTTPPVLDSDGSFFLYSKLTVDKSRWQQGNVFSCSVMHEALHNHYTQKSLSLSPGK |
| – | – | – | 0.222 | 0.000184 | 826000 | 0.318 | 0.000327 | 1.03e+06 | 0.358 | 0.000428 | 1.19e+06 | huCD3E-AA1-27-huFc-Biotin (Fc fusion, biotinylated (sites not given), also called biotinylated huCD3E AA1-27-huFc) QDGNEEMGGITQTPYKVSISGTTVILTTHTCPPCPAPELLGGPSVFLFPPKPKDTLMISRTPEVTCVVVDVSHEDPQVKFNWYVDGVQVHNAKTKPREQQYNSTYRVVSVLTVLHQNWLDGKEYKCKVSNKALPAPIEKTISKAKGQPREPQVYTLPPSREEMTKNQVSLTCLVKGFYPSDIAVEWESNGQPENNYKTTPPVLDSDGSFFLYSKLTVDKSRWQQGNVFSCSVMHEALHNHYTQKSLSLSPGK |
